Measured values as given in paper PMC7367873, “Dissecting the sequence determinants for dephosphorylation by the catalytic subunits of phosphatases PP1 and PP2A” (Nature Communications, 2020).

Assays:
[1] = molecular target: T1, PP1c (Homo sapiens, UniProt P62136); assay: Phosphoproteome dephosphorylation assay of HeLa Kyoto lysate with recombinant PP1c (TMT phosphoproteomics); type: biochemical; settings: 1 µM recombinant phosphatase, 1 h at 30 °C, 20 nM Calyculin A, three replicates
T1 construct: His tag with TEV site (N, cleaved yes); intein (pTXB1) (C, cleaved yes); made in house; host or cells: E. coli BL21Star(DE3)pRARE
T1 sequence (P62136 whole entry): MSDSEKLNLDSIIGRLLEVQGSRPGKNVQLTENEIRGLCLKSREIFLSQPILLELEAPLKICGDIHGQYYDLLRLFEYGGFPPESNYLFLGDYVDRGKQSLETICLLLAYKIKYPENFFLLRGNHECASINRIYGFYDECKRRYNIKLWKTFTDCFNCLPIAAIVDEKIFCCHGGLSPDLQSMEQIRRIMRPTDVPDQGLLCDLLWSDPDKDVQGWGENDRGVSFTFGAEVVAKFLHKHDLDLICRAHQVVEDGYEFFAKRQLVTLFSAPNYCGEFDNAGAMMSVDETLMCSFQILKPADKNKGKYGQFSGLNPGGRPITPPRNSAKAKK
Experimental: (§1) For phosphoproteomics, HeLa Kyoto cells were incubated with 20 nM Calyculin A (CST, #9902) for 10–15 min. This time point was determined empirically to yield maximal phosphatase inhibition without cells showing pleiotropic effects. Subsequently, cells were placed on ice and washed twice with cold PBS and scraped in lysis buffer (100 mM NaCl, 10 mM Tris, 0.1% IGEPAL, 1 mM EDTA, 1 mM EGTA, 20 nM Calyculin A, 1x cOmplete Mini protease inhibitor cocktail (Sigma), 1 mM DTT, 1 mM MnCl2, pH 7.5). After 10 pushes through an injection needle (21 G, BD), lysate was cleared from the insoluble fraction by centrifugation (10 min, 10^4 rcf, 4 °C). Protein concentration was then determined by a Bradford Assay and equal amounts of 1 mg total protein were incubated with recombinant PP1c/PP2Ac or buffer at a final phosphatase concentration of 1 µM in a total volume of 200 µL for 1 h at 30 °C. Lysates were then immediately placed on ice. PhosStop […] (Roche) was added and proteins were denatured by adding urea to a final concentration of 8 M taking into account the volume increase. Samples were then snap-frozen in liquid nitrogen for storage and subsequent MS analysis.
(§2) Treated lysates were reduced (10 mM DTT, 30 °C, 30 min) and alkylated (50 mM chloroacetamide, room temperature, 30 min, in the dark), and then diluted to 1.3 M urea using 40 mM Tris-HCl (pH 7.6). […]

[2] = molecular target: T2, PP2Ac (Homo sapiens, UniProt P67775); assay: Phosphoproteome dephosphorylation assay of HeLa Kyoto lysate with recombinant PP2Ac (TMT phosphoproteomics); type: biochemical; settings: 1 µM recombinant phosphatase, 1 h at 30 °C, 20 nM Calyculin A, three replicates
T2 construct: purchased Cayman Chemical 10011237
T2 sequence (P67775 1-308 limits assumed): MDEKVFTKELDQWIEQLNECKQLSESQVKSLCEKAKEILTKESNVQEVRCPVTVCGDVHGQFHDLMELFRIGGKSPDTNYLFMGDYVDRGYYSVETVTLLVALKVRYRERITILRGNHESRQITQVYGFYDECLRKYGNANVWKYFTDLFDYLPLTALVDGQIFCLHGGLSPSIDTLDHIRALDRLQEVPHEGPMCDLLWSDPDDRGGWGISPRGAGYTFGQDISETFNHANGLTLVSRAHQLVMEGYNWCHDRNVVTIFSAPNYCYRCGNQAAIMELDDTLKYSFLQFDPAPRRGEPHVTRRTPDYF
Experimental: as §1, §2

## PP1c: recombinant catalytic subunit of PP1
[1]
  number of class I p-sites dephosphorylated by PP1: 1967 p-sites

## PP2Ac: His-tagged recombinant PPP2CA ΔL309, purchased from Cayman Chemical
[2]
  number of class I p-sites dephosphorylated by PP2A: 1840 p-sites
